Measured values from patent publication US20180155451A1 (published 2018).

T1: FcγRIIa R (human, UniProt P12318 34-217)
T1 construct: extracellular domain; Soluble extracellular domain with C-terminal His tag, expressed in FreeStyle293 cells; also called FcgRIIa R; FcγRIIa type R; not shown: His tag attached to the C terminus
T1 sequence (looked up): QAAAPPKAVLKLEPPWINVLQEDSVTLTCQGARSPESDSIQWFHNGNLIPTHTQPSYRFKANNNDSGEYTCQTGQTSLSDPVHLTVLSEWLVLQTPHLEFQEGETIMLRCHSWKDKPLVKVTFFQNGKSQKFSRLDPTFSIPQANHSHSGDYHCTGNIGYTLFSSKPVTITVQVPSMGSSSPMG

T2: FcγRIIb (human, UniProt P31994 43-217)
T2 construct: extracellular domain; Soluble extracellular domain with C-terminal His tag, used as analyte in Biacore; also called FcgRIIb; 2b; not shown: His tag attached to the C terminus
T2 sequence (looked up): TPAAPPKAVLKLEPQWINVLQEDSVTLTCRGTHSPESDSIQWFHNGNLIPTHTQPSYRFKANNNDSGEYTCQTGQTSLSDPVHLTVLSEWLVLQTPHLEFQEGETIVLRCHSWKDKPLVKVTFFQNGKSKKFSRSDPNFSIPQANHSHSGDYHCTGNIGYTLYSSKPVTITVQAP

B1: GpH7-A5/GpH7-B3 variant G237_02A/GpL16-k0 (antibody, human IgG1, kappa)
heavy 1: not shown
heavy 2: not shown
light: DIVMTQSPLSLPVTPGEPASISCQASESLVHSNRNTYLHWYLQKPGQSPQLLIYKVSNRFSGVPDRFSGSGSGTDFTLKISRVEAEDVGVYYCSQNTHVPPTFGQGTKVEIERTVAAPSVFIFPPSDEQLKSGTASVVCLLNNFYPREAKVQWKVDNALQSGNSQESVTEQDSKDSTYSLSSTLTLSKADYEKHKVYACEVTHQGLSSPVTKSFNRGEC
notes: Heterodimerized IgG1; mutation in the GpH7-B3 H chain only; also called He Ab
B2: GpH7-A5/GpH7-B3 variant G237_09D/GpL16-k0 (antibody, human IgG1, kappa)
heavy 1: not shown
heavy 2: not shown
light: B1 light
notes: as for B1
B3: GpH7-A5/GpH7-B3 variant G237_08L/GpL16-k0 (antibody, human IgG1, kappa)
heavy 1: not shown
heavy 2: not shown
light: B1 light
notes: as for B1
B4: GpH7-A5/GpH7-B3 variant G237_06M/GpL16-k0 (antibody, human IgG1, kappa)
heavy 1: not shown
heavy 2: not shown
light: B1 light
notes: as for B1
B5: GpH7-A5/GpH7-B3 variant G237_04F/GpL16-k0 (antibody, human IgG1, kappa)
heavy 1: not shown
heavy 2: not shown
light: B1 light
notes: as for B1
B6: GpH7-A5/GpH7-B3 variant G236_09D/GpL16-k0 (antibody, human IgG1, kappa)
heavy 1: not shown
heavy 2: not shown
light: B1 light
notes: as for B1
B7: GpH7-A5/GpH7-B3 variant T335_08L/GpL16-k0 (antibody, human IgG1, kappa)
heavy 1: not shown
heavy 2: not shown
light: B1 light
notes: heterodimerized; mutation in one H chain only; also called He Ab
B8: GpH7-A5/GpH7-B3 variant S337_14T/GpL16-k0 (antibody, human IgG1, kappa)
heavy 1: not shown
heavy 2: not shown
light: B1 light
notes: as for B7
B9: GpH7-A5/GpH7-B3 variant L328_06M/GpL16-k0 (antibody, human IgG1, kappa)
heavy 1: not shown
heavy 2: not shown
light: B1 light
notes: as for B7
B10: GpH7-A5/GpH7-B3 variant L328_07I/GpL16-k0 (antibody, human IgG1, kappa)
heavy 1: not shown
heavy 2: not shown
light: B1 light
notes: as for B7
B11: GpH7-A5/GpH7-B3 variant S267_02A/GpL16-k0 (antibody, human IgG1, kappa)
heavy 1: not shown
heavy 2: not shown
light: B1 light
notes: as for B7
B12: GpH7-A5/GpH7-B3 variant T335_04F/GpL16-k0 (antibody, human IgG1, kappa)
heavy 1: not shown
heavy 2: not shown
light: B1 light
notes: as for B7
B13: GpH7-A5/GpH7-B3 variant L328_03V/GpL16-k0 (antibody, human IgG1, kappa)
heavy 1: not shown
heavy 2: not shown
light: B1 light
notes: as for B7
B14: GpH7-A5/GpH7-B3 variant K334_18N/GpL16-k0 (antibody, human IgG1, kappa)
heavy 1: not shown
heavy 2: not shown
light: B1 light
notes: as for B7
B15: GpH7-A5/GpH7-B3 variant K334_14T/GpL16-k0 (antibody, human IgG1, kappa)
heavy 1: not shown
heavy 2: not shown
light: B1 light
notes: as for B7
B16: GpH7-A5/GpH7-B3 variant K334_15Y/GpL16-k0 (antibody, human IgG1, kappa)
heavy 1: not shown
heavy 2: not shown
light: B1 light
notes: as for B7
B17: GpH7-A5/GpH7-B3 variant K326_06M/GpL16-k0 (antibody, human IgG1, kappa)
heavy 1: not shown
heavy 2: not shown
light: B1 light
notes: as for B7
B18: GpH7-A5/GpH7-B3 variant K326_09D/GpL16-k0 (antibody, human IgG1, kappa)
heavy 1: not shown
heavy 2: not shown
light: B1 light
notes: as for B7
B19: GpH7-A5/GpH7-B3 variant K334_16H/GpL16-k0 (antibody, human IgG1, kappa)
heavy 1: not shown
heavy 2: not shown
light: B1 light
notes: as for B7
B20: GpH7-A5/GpH7-B3 variant K326_19Q/GpL16-k0 (antibody, human IgG1, kappa)
heavy 1: not shown
heavy 2: not shown
light: B1 light
notes: as for B7
B21: GpH7-A5/GpH7-B3 variant S239_09D/GpL16-k0 (antibody, human IgG1, kappa)
heavy 1: not shown
heavy 2: not shown
light: B1 light
notes: as for B7
B22: GpH7-A5/GpH7-B3 variant K326_10E/GpL16-k0 (antibody, human IgG1, kappa)
heavy 1: not shown
heavy 2: not shown
light: B1 light
notes: as for B7
B23: GpH7-A5/GpH7-B3 variant K334_07I/GpL16-k0 (antibody, human IgG1, kappa)
heavy 1: not shown
heavy 2: not shown
light: B1 light
notes: as for B7
B24: GpH7-A5/GpH7-B3 variant K334_03V/GpL16-k0 (antibody, human IgG1, kappa)
heavy 1: not shown
heavy 2: not shown
light: B1 light
notes: as for B7
B25: GpH7-A5/GpH7-B3 variant T335_06M/GpL16-k0 (antibody, human IgG1, kappa)
heavy 1: not shown
heavy 2: not shown
light: B1 light
notes: as for B7
B26: GpH7-A5/GpH7-B3 variant Y300_04F/GpL16-k0 (antibody, human IgG1, kappa)
heavy 1: not shown
heavy 2: not shown
light: B1 light
notes: as for B7
B27: GpH7-A5/GpH7-B3 variant S267_07I/GpL16-k0 (antibody, human IgG1, kappa)
heavy 1: not shown
heavy 2: not shown
light: B1 light
notes: as for B7
B28: GpH7-A5/GpH7-B3 variant S239_01G/GpL16-k0 (antibody, human IgG1, kappa)
heavy 1: not shown
heavy 2: not shown
light: B1 light
notes: as for B7
B29: GpH7-A5/GpH7-B3 variant L328_15Y/GpL16-k0 (antibody, human IgG1, kappa)
heavy 1: not shown
heavy 2: not shown
light: B1 light
notes: as for B7
B30: GpH7-A5/GpH7-B3 variant T335_16H/GpL16-k0 (antibody, human IgG1, kappa)
heavy 1: not shown
heavy 2: not shown
light: B1 light
notes: as for B7
B31: GpH7-A5/GpH7-B3 variant T335_20W/GpL16-k0 (antibody, human IgG1, kappa)
heavy 1: not shown
heavy 2: not shown
light: B1 light
notes: as for B7
B32: GpH7-A5/GpH7-B3 variant L328_04F/GpL16-k0 (antibody, human IgG1, kappa)
heavy 1: not shown
heavy 2: not shown
light: B1 light
notes: as for B7
B33: GpH7-A5/GpH7-B3 variant Y296_20W/GpL16-k0 (antibody, human IgG1, kappa)
heavy 1: not shown
heavy 2: not shown
light: B1 light
notes: as for B7
B34: GpH7-A5/GpH7-B3 variant T335_19Q/GpL16-k0 (antibody, human IgG1, kappa)
heavy 1: not shown
heavy 2: not shown
light: B1 light
notes: as for B7
B35: GpH7-A5/GpH7-B3 variant S267_01G/GpL16-k0 (antibody, human IgG1, kappa)
heavy 1: not shown
heavy 2: not shown
light: B1 light
notes: as for B7
B36: GpH7-A5/GpH7-B3 variant K326_16H/GpL16-k0 (antibody, human IgG1, kappa)
heavy 1: not shown
heavy 2: not shown
light: B1 light
notes: as for B7
B37: GpH7-A5/GpH7-B3 variant T335_09D/GpL16-k0 (antibody, human IgG1, kappa)
heavy 1: not shown
heavy 2: not shown
light: B1 light
notes: as for B7
B38: GpH7-A5/GpH7-B3 variant V266_06M/GpL16-k0 (antibody, human IgG1, kappa)
heavy 1: not shown
heavy 2: not shown
light: B1 light
notes: as for B7
B39: GpH7-A5/GpH7-B3 variant T335_18N/GpL16-k0 (antibody, human IgG1, kappa)
heavy 1: not shown
heavy 2: not shown
light: B1 light
notes: as for B7
B40: GpH7-A5/GpH7-B3 variant P238_08L/GpL16-k0 (antibody, human IgG1, kappa)
heavy 1: not shown
heavy 2: not shown
light: B1 light
notes: as for B7
B41: GpH7-A5/GpH7-B3 variant K326_14T/GpL16-k0 (antibody, human IgG1, kappa)
heavy 1: not shown
heavy 2: not shown
light: B1 light
notes: as for B7

molecular target: T3, FcγRIa (human, UniProt P12314 16-292); experiment: SPR (Biacore); He/Con_1a divided by He/Con_2b (FcγRIa against FcγRIIb)
T3 construct: extracellular domain; Soluble extracellular domain with C-terminal His tag, used as analyte in Biacore; also called FcgRI; 1a; not shown: His tag attached to the C terminus
T3 sequence (P12314 16-292): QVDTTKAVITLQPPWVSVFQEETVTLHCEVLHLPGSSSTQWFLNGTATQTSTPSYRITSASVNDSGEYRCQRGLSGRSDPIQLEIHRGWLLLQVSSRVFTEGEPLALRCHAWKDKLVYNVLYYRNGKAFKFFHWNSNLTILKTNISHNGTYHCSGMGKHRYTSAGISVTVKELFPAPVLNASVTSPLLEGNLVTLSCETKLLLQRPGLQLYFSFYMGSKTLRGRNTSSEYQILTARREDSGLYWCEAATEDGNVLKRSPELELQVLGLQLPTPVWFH

Ia/IIb He_1a/2b [ratio] | Binder
0.73 | B1
0.38 | B2
0.54 | B3
0.63 | B4
0.55 | B5
0.58 | B6

molecular target: T1, FcγRIIa R; experiment: SPR (Biacore), antibody captured via antigen peptide, FcγRIIa R as analyte; heterodimerized antibody
Description: Analysis of interaction between objective antibody and the FcγR was carried out using Biacore T100 (GE Healthcare). HBS-EP+ (GE Healthcare) was used as the running buffer, and the measurement temperature was set to 25° C. Chips produced by immobilizing the antigen peptide by the amine coupling method to a Series S Sencor Chip CM5 (GE Healthcare), or alternatively, chips produced by allowing preliminarily biotinylated antigen peptides to interact with and immobilize onto a Series S Sensor Chip SA (certified) (GE Healthcare) were used. Antibodies of interest were captured onto an antigen peptide-immobilized chip, and allowed to interact to each FcγR diluted with running buffer. To regenerate and repeatedly use the chip, the antibodies captured on the chip were washed off by reacting 10 mM glycine-HCl, pH 1.5.

He/Con_2aR | Binder
108 % of control (GpH7-A5/GpH7-B3/GpL16-k0 = 100) | B7
110 % of control (GpH7-A5/GpH7-B3/GpL16-k0 = 100) | B8
115 % of control (GpH7-A5/GpH7-B3/GpL16-k0 = 100) | B9
124 % of control (GpH7-A5/GpH7-B3/GpL16-k0 = 100) | B10
155 % of control (GpH7-A5/GpH7-B3/GpL16-k0 = 100) | B11
108 % of control (GpH7-A5/GpH7-B3/GpL16-k0 = 100) | B12
116 % of control (GpH7-A5/GpH7-B3/GpL16-k0 = 100) | B13
112 % of control (GpH7-A5/GpH7-B3/GpL16-k0 = 100) | B14
112 % of control (GpH7-A5/GpH7-B3/GpL16-k0 = 100) | B15
108 % of control (GpH7-A5/GpH7-B3/GpL16-k0 = 100) | B16
138 % of control (GpH7-A5/GpH7-B3/GpL16-k0 = 100) | B17
148 % of control (GpH7-A5/GpH7-B3/GpL16-k0 = 100) | B18
109 % of control (GpH7-A5/GpH7-B3/GpL16-k0 = 100) | B19
129 % of control (GpH7-A5/GpH7-B3/GpL16-k0 = 100) | B20
137 % of control (GpH7-A5/GpH7-B3/GpL16-k0 = 100) | B21
148 % of control (GpH7-A5/GpH7-B3/GpL16-k0 = 100) | B22
114 % of control (GpH7-A5/GpH7-B3/GpL16-k0 = 100) | B23
117 % of control (GpH7-A5/GpH7-B3/GpL16-k0 = 100) | B24

He/Con_2aR | Binder
105 % of control (GpH7-A5/GpH7-B3/GpL16-k0 = 100) | B25
108 % of control (GpH7-A5/GpH7-B3/GpL16-k0 = 100) | B26
111 % of control (GpH7-A5/GpH7-B3/GpL16-k0 = 100) | B27
128 % of control (GpH7-A5/GpH7-B3/GpL16-k0 = 100) | B28
136 % of control (GpH7-A5/GpH7-B3/GpL16-k0 = 100) | B29
108 % of control (GpH7-A5/GpH7-B3/GpL16-k0 = 100) | B30
109 % of control (GpH7-A5/GpH7-B3/GpL16-k0 = 100) | B31
138 % of control (GpH7-A5/GpH7-B3/GpL16-k0 = 100) | B32
110 % of control (GpH7-A5/GpH7-B3/GpL16-k0 = 100) | B33
106 % of control (GpH7-A5/GpH7-B3/GpL16-k0 = 100) | B34
113 % of control (GpH7-A5/GpH7-B3/GpL16-k0 = 100) | B35
120 % of control (GpH7-A5/GpH7-B3/GpL16-k0 = 100) | B36
110 % of control (GpH7-A5/GpH7-B3/GpL16-k0 = 100) | B37
150 % of control (GpH7-A5/GpH7-B3/GpL16-k0 = 100) | B38
106 % of control (GpH7-A5/GpH7-B3/GpL16-k0 = 100) | B39
140 % of control (GpH7-A5/GpH7-B3/GpL16-k0 = 100) | B40
134 % of control (GpH7-A5/GpH7-B3/GpL16-k0 = 100) | B41

molecular target: T3, FcγRIa; experiment: SPR (Biacore), antibody captured on antigen peptide, FcγR as analyte; relative to GpH7-A5/GpH7-B3/GpL16-k0 = 100

He/Con_1a | Binder
90.3 % of control | B1
84 % of control | B2
79.6 % of control | B3
81.6 % of control | B4
81.5 % of control | B5
96.6 % of control | B6

molecular target: T2, FcγRIIb; experiment: as above

He/Con_2b | Binder
124 % of control | B1
223 % of control | B2
148 % of control | B3
130 % of control | B4
149 % of control | B5
167 % of control | B6
